From the nanobody polyreactivity screen of Harvey et al. (2022)

Assay: yeast display, Sf9 membrane polyspecificity reagent, FACS + sequencing; frameworks hold sequencing errors
Outline: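 A nanobody's polyreactivity label depends on the gate it was sorted from. Yeast display cells were stained with 10% biotinylated, detergent-solubilized Sf9 membrane reagent for 1 hour at 4 °C, enriched on streptavidin microbeads and sorted by FACS. The low and high (top ~1%) gates were set on anti-HA fluorescence for expression and streptavidin fluorescence for reagent binding.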

Sequence | polyreactivity (PSR sort gate)
QVQLVESGGGLVQAGGSLRLSCAASGSIIVRYAMGWDRQAPGKERELVAAISKSGGSTHYADSVKGRFTISRDNAKNTVYLQMNSLKPEDTAVYYCAAVYYYRFTTYYYWGQGTQVTVSS | high polyreactivity
QVQLVESGGGLVQAGGSLRLSCAASGGTFSTNTMGWYRQAPGKEMELVAAITEGTGNTYYADSVKGRFTISRDTAKNTVYLQMNSLKPEDTAVYDCATVAYSGSDFSGSAGAGDYWGQGTQVTVSS | low polyreactivity
QVQLGESGGGLVQAGGSLRLRCAASGYIITYNAMGWYRQAPGKERELVAAISSGGSTNYADSVKGRFTISRDNAKITVYLQMNSLKPEDTAVFYCAAPVWTYDDYWGQGSQVTVSS | low polyreactivity
QVQLVESGGGLVQAGGSLRLSCAASGSTFAIYAMGWYRQAPGKERELVAAITGRSGSTYYADSVKGRFTISRDNAKNTVYLQMNSLKPEDTAVYYCAAQGGYRRTPYIHRDYWGQGTQVTVSS | high polyreactivity
QVQLVESGGGLVQAGGSLGLSCAASGITFYTYPMGLYRQAPGKERELVAAISRRGGSTYYADSVKGRFTISRDNAKNTVYLHLNSLKPEDTAVYYCNAVADCYSGFDGYYYWGQGTQVTVSS | high polyreactivity
QVQLVESGGGLVQAGGSLRLSCAASGRIFWVYAMGWYRQAPGKERELVAAIDWSDGITYYADSVKGRFTISRDNAKNTVYLQMNSLKPEDTAVYYCAAESVIYQTYNYWGQGTQVTVSS | high polyreactivity
QVQLVESGGGLVQAGGSLRLSCAASGRIFSYNAMGWYRQAPGKERELVAAITFSGGGTYYADSVKGRFTISRDNAKNTVYLQMNSLKPEDTAVYYCAADVPPKYRHRYNLYDYWGQGTQVTVSS | low polyreactivity
QVQIVESGGGLVQAGGSLRLSCAASGSISVPYGMGWYRQAPGKERELVAAISGGSTNYADSVKGRFTISRDNAKNTVYLQMNSLKPEDTAVYFCAADWWAWYTRYDYWGQGSQVTVSS | low polyreactivity
QVQLVESGGGLVQEGGSLRLSCAASGSIFRVNTMGWYRQAPGKERELVATISSGARTNYADSVKGRFTISRDNAKNTVYLQMNSLKPEDTAVYYCAADRSWGYPRWFTSRYDYWGQGTQVTVSS | high polyreactivity
QVQLVESGGGLVQAGGSLRLSCAASGSIFDYYAMGWYRQAPGKETEFVADICSSGTSTYYADSVKGRFTISRDNAKNTVYLQMNSLKPEDTAVYYCNSELDSWLSYVVAYFARFDYWGQGTQVTVSS | high polyreactivity
QVQLVESGGGLVQAGGSLRLSCAASGFIFSVYTMGWYRQAPGKERELVASITGSGGDTYYADSVKGRFTISRDNAKNTVYLQMNSLKPEDTAVYYCNVDAGFHDSYHAWNFRYDYWGQGTQVTVSS | low polyreactivity
QVQLVESGGGLVQAGGSLRLSCAASGYNFHDYAMGWYRQAPGKERELFAAISKRGGSTYYADSVKGRFTISRDNAKNTVYLQMNSLKPEDTAVYYCAKGGPHRGTGLNDYWGQCTQVTVSS | high polyreactivity
QVQLVESGGGLFQAGGSLRLICADSGRTFGYNAMGWYRKATGKDRELVAAINWSGASTYYADSVKGRFTISRDNAKNTVYLQMNCLKPEDTAVYYCAAAYSYIYGFDYWGQGTQVTVSS | low polyreactivity
QVQLVESGGGLVQAGGSLRLSCAASGGIFLGNAMGWYRQAPGKERELVAAISWSGGSTYYADSVKGRFTISRDNAKNTVYLQMNSLKPEDTAVYYCAAAWNRGKYNYYYWGQGTQVTVSS | high polyreactivity
QVQLVESGGGLVQAGGSLRLTCAASASIFGSAMGWSRQAPGNEMELVASTTDADSVKGRFTISRDNAKNTVYLQMNSLKPEDTSVYYCAADDWDTVEMEYWGQVTQVTVSS | low polyreactivity
QVQLVESGGGLVQAGGSLRLSCAASGSTFGPYAMGWYRPAPGKERELVAAITSSGGTTYYADSVKGRFTISRDNAKNTVYLQMNSLKPEDTAVYYCAVDYYGKVGDDYWGQGTQVTVSS | low polyreactivity
QVQLVESGGGLVQAGGSLRLSCAASGSTFWWYAMGWYRQAPGKERELVATISWSTGSTYYADSVKGRFTISRDNAKNTVYLQMNSLKPEDTAVYYCNARIFYLFPGNSWSSSDYDYWGQGTQVTVSS | low polyreactivity
